From patent publication US20250129355A1 come the findings set out here.

Series [1] relates to T1, Upstream protein 1 (Up1) from Desulfonema ishimotonii.
T1 sequence: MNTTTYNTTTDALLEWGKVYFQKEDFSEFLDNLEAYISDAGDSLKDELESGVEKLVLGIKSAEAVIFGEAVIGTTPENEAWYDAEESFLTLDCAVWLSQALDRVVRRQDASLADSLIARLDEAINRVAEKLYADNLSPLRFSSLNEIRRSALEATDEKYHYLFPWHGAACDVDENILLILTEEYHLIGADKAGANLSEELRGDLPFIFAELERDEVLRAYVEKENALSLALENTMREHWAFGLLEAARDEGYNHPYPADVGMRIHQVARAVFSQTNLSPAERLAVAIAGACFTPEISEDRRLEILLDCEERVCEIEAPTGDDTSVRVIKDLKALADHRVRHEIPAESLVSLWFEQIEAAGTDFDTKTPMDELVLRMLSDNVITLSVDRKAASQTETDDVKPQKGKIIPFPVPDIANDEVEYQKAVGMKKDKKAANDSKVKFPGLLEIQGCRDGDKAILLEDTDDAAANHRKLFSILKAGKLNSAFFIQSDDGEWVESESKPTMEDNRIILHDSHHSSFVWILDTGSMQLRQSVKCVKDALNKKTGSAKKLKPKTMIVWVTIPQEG

Series [2] has as its system TwinStrep-Up1Δloop mutant.
Series [3] deals with Up1 fragment residues 396-565.
In series [4] the test system is Up1 fragment amino acids 296-565.
Series [5] deals with Up1 single alanine substitution mutants.
In series [6] the target is Up1 fused to an 3×HA epitope tag (expressed from a plasmid in HEK293T cells) (Desulfonema ishimotonii). The experiment in a line: cell-based or functional assay.

For gRAMP(D429A/D654A)-CHAT-crRNA complex, in series [1], the “Up1 cleavage in vitro (SDS-PAGE)” value is “disrupting the catalytic sites of gRAMP (D429A/D654A) did not”.
“gRAMP-CHAT-crRNA complex from Desulfonema ishimotonii”: the “Up1 cleavage in vitro (western blot)” value in series [2] is listed as “truncating the loop by four residues, or deleting M427 alone, prevented in vitro cleavage”. The “Up1 cleavage in vitro (western blot)” value with Up1 with D430 deleted was “the deletion of D430 had no effect”. Moreover, the “cleavage of truncated Up1 in vitro (SDS-PAGE)” value in [3] is “Up1 fragments containing residues 396-565 were fully active in vitro”. Besides, in [1], the “Up1 cleavage in vitro (SDS-PAGE)” value is “the largest protein, Up1, is specifically cleaved in response to target RNA”; the “cleavage of the protein substrate in vitro (SDS-PAGE)” value is on record as “the substrate is neighboring protein WP_124327587.1 (FIG. 2), that cleavage of the substrate is dependent on presence of a target RNA”; the “substrate turnover in vitro” value is listed as “cleaving 100-fold excess of Up1 substrate in minutes”. Besides, in the series on Up1-Up3 complex, the “cleavage of Up1 within the Up1-Up3 complex (SDS-PAGE)” value is “an Up1-Up3 complex which could be cleaved by gRAMP-CHAT in the presence of target RNA”; the “proteolytic cleavage of Up1 in the purified Up1-Up3 complex (SDS-PAGE, Coomassie)” value is “only in the lane with gRAMP-CHAT (+) and target RNA (+) the Up1 band becomes weaker and two new bands appear, at about 50 kDa and just above 15 kDa; much Up1 stays uncleaved; the Up3 band at 25 kDa is unchanged; no new bands without gRAMP-CHAT or with gRAMP-CHAT but without target RNA”. In addition, the “cleavage of truncated Up1” value in series [4] is “Smaller versions of Up1 containing amino acids 296-565 retained full activity for processing”. Besides, the “Up1 cleavage in vitro (western blot)” value in the series with Up1 with M427 deleted is reported as “truncating the loop by four residues, or deleting M427 alone, prevented in vitro cleavage”. Besides, the “gRAMP-CHAT mediated protein cleavage of alanine mutants” value in [5] is “No single alanine mutation blocks CHAT protease activity”. Besides, in series [6], the efficiency of Up1 cleavage in HEK293T cells across a panel of endogenous transcripts lay within 3 to 22%.

B1: gRAMP-CHAT(H615A/C658A)-crRNA complex (enzyme, part only; not given: gRAMP, His tag, crRNA)
chain, part: MSNPIRDIQDRLKTAKFDNKDDMMNLASSLYKYEKQLMDSSEATLCQQGLSNRPNSFSQLSQFRDSDIQSKAGGQTGKFWQNEYEACKNFQTHKERRETLEQIIRFLQNGAEEKDADDLLLKTLARAYFHRGLLYRPKGFSVPARKVEAMKKAIAYCEIILDKNEEESEALRIWLYAAMELRRCGEEYPENFAEKLFYLANDGFISELYDIRLFLEYTEREEDNNFLDMILQENQDRERLFELCLYKARACFHLNQLNDVRIYGESAIDNAPGAFADPFWDELVEFIRMLRNKKSELWKEIAIKAWDKCREKEMKVGNNIYLSWYWARQRELYDLAFMAQDGIEKKTRIADSLKSRTTLRIQELNELRKDAHRKQNRRLEDKLDRIIEQENEARDGAYLRRNPPCFTGGKREEIPFARLPQNWIAVHFYLNELESHEGGKGGHALIYDPQKAEKDQWQDKSFDYKELHRKFLEWQENYILNEEGSADFLVTLCREIEKAMPFLFKSEVIPEDRPVLWIPHGFLHRLPLHAAMKSGNNSNIEIFWERHASRYLPAWHLFDPAPYSREESSTLLKNFEEYDFQNLENGEIEVYAPSSPKKVKEAIRENPAILLLLCAGEADMTNPFRSCLKLKNKDMTIFDLLTVEDVRLSGSRILLGAAESDMVPPLEFSVDEHLSVSGAFLSHKAGEIVAGLWTVDSEKVDECYSYLVEEKDFLRNLQEWQMAETENFRSENDSSLFYKIAPFRIIGFPAE
B1: the “Up1 cleavage in vitro (SDS-PAGE)” value in [1] is recorded as “mutating the catalytic residues of the CHAT protease (H615A/C658A) abolished activity”.
